This note sets out measurements from PMC5847570, “Structural model of human dUTPase in complex with a novel proteinaceous inhibitor”.

Data set [1] deals with human deoxyuridine 5′-triphosphate nucleotidohydrolase (dUTPase), nuclear isoform (human).
Data set [2] has the same target. Description: SAXS; batch measurements of hDUT (0.2-2.0 mg/mL) and of Stl (0.2-0.9 mg/mL) alone; 50 mM HEPES pH 7.5, 300 mM NaCl, 5 mM MgCl2; 20 °C in the text, 283 K in Table 1.
The target in data set [3] is Staphylococcal repressor protein Stl_(SaPIBov1) (Staphylococcus aureus) (UniProt Q9F0J8). Description: SEC-SAXS; hDUT:Stl complex (100 µL at ~8 mg/ml) on an S200 Increase 10/300 column in 50 mM HEPES pH 7.5, 300 mM NaCl, 5 mM MgCl2, in line with SAXS; two regions of the peak analysed.
Data set [4] deals with human deoxyuridine 5′-triphosphate nucleotidohydrolase (dUTPase), nuclear isoform (human). The description is as above.
Data set [5] concerns the target Staphylococcal repressor protein Stl_(SaPIBov1) (Staphylococcus aureus) (UniProt Q9F0J8). Description: native MS; ESI-QTOF, positive mode; 5 mM NH4HCO3 pH 7.5; hDUT, Stl or both at ca. 0.5 µM monomer.
In data set [6] the target is human deoxyuridine 5′-triphosphate nucleotidohydrolase (dUTPase), nuclear isoform (human). The description is as above.
Data set [7] deals with Staphylococcal repressor protein Stl_(SaPIBov1) (Staphylococcus aureus) (UniProt Q9F0J8). Description: ITC; Stl in the cell, hDUT in the syringe; 20 °C; 20 mM HEPES pH 7.5, 300 mM NaCl, 5 mM MgCl2, 1 mM TCEP; one set of independent sites; mean and SD of three measurements; concentrations of protomers; apparent affinity.
A further data set concerns the target Stl (StlSaPIBov1) (Staphylococcus aureus pathogenicity …, UniProt Q9F0J8 1-267). Description: EMSA; no hDUT; 100 mM NaCl; […]; binding buffer pH not stated. The conditions noted are these: protein: recombinant; tags: GST-tag cleaved by thrombin, His-tag removed; N-terminal vector-derived extension remains; chain copies: 2; blunt.

Molecule “Staphylococcal repressor protein Stl_(SaPIBov1) (from UniProt Q9F0J8 1-267) (natural protein)” returned a maximal inhibition of hDUT catalytic activity by Stl in data set [1] of 70%.

“human deoxyuridine 5′-triphosphate nucleotidohydrolase (dUTPase), nuclear isoform (enzyme)”: the stoichiometry N in data set [2] turned out to be 3. In data set [3], this molecule had a stoichiometry N (hDUT:Stl (3:2, region 2)) of 1.5 and a stoichiometry N (hDUT:Stl (3:3, region 1)) of 1. Further, the stoichiometry N in data set [4] is 3. In addition, in data set [5], the stoichiometry N (hDUT:Stl (3:2)) came to 1.5. Also, in data set [6], the stoichiometry N was 3. Also, in data set [7], the Kd was determined as 230 nM and the stoichiometry N (hDUT protomer per Stl protomer) worked out at 1.27.

B1: interR 43 bp (dsDNA)
DNA 1: ATGTTGAAATAAATATCTCGATGTGAGATAATTTGTTCGAGGA
DNA 2: TCCTCGAACAAATTATCTCACATCGAGATATTTATTTCAACAT
As to B1, the binding result with Stl (StlSaPIBov1) is on record as “binds”.
